{"source": "paper PMC2568912", "about": "(The Journal of Biological Chemistry, 2008)", "proteins": {"B1": {"name": "N-terminal HA-tagged PKD2 mutant L703X (domain or fragment, human, UniProt Q13563 1-702, looked up)", "chain": "MVNSSRVQPQQPGDAKRPPAPRAPDPGRLMAGCAAVGASLAAPGGLCEQRGLEIEMQRIRQAAARDPPAGAAASPSPPLSSCSRQAWSRDNPGFEAEEEEEEVEGEEGGMVVEMDVEWRPGSRRSAASSAVSSVGARSRGLGGYHGAGHPSGRRRRREDQGPPCPSPVGGGDPLHRHLPLEGQPPRVAWAERLVRGLRGLWGTRLMEESSTNREKYLKSVLRELVTYLLFLIVLCILTYGMMSSNVYYYTRMMSQLFLDTPVSKTEKTNFKTLSSMEDFWKFTEGSLLDGLYWKMQPSNQTEADNRSFIFYENLLLGVPRIRQLRVRNGSCSIPQDLRDEIKECYDVYSVSSEDRAPFGPRNGTAWIYTSEKDLNGSSHWGIIATYSGAGYYLDLSRTREETAAQVASLKKNVWLDRGTRATFIDFSVYNANINLFCVVRLLVEFPATGGVIPSWQFQPLKLIRYVTTFDFFLAACEIIFCFFIFYYVVEEILEIRIHKLHYFRSFWNCLDVVIVVLSVVAIGINIYRTSNVEVLLQFLEDQNTFPNFEHLAYWQIQFNNIAAVTVFFVWIKLFKFINFNRTMSQLSTTMSRCAKDLFGFAIMFFIIFLAYAQLAYLVFGTQVDDFSTFQECIFTQFRIILGDINFAEIEEANRVLGPIYFTTFVFFMFFILLNMFLAIINDTYSEVKSDLAQQKAEMELSD"}}, "target": "the molecule itself", "assay": "non-reducing SDS-PAGE with immunoblot", "data": [{"protein": "B1", "values": [{"measurement": "stoichiometry N", "value": 2}]}]}
